To fix the notation:
B1: TPR 5TU (parent)
chain: GGAUCUUCUCGAUCUAACAAAAAAGACAAAUCUGCCACAAAGCUUGAGAGCAUCUUCGGAUGCAGAGGCGGCAGCCUUCGGUGGCGCGAUAGCGCCAACGUUCUCAACUAUGACACGCAAAACGCGUGCUCCGUUGAAUGGAGUUUAUCAUG

Variants at the floor of the assay were thinned out.

The variants in the data set derive from B1. Description: polymerase ribozyme fitness, log enrichment relative to wild type (log ratio); higher = more active; in vitro selection for triplet polymerase activity. In outline:
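Frozen incubation at −7 °C formed the core of a single, triplicate in vitro selection round applied to PCR-built, transcribed mutant libraries of each subunit of a heterodimeric triplet polymerase ribozyme. Extended constructs were gel-excised, captured with streptavidin beads and amplified by RT-PCR, and input and output libraries were Illumina-sequenced with a filter of ≥10 input reads and ≥1 read per output. Fitness is the logarithm of genotype enrichment relative to wild-type enrichment, with inverse-variance-weighted replicate averaging, and the logarithm is base 2.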
As to GGAUCUUCUCGAUCUAACAAAAAACACAAAUCUGCCACAAAGCUUGAGAGCAUCUUCGGUUGCAGAGGCGGCAGCCUUCGGUGGCGCGAUAGAGGCAACGUUCUCAACUAUGACACGCAAAACGCGUGCUCCGUUGGAUGGAGUUUAUCAUG [G25C A60U C93A C95G A137G], the “polymerase ribozyme fitness (log ratio)” value was ≤ -4.2.

On to GGAUCUUCUCGAUCUAACAAAAAAUACAAAUCUGCCACAAAGCUUGAGAGCAUCUUCGGAUGCAGAGGCGGCAGCCUUCGGUGGCGCGAUAGCGCCAACGUUCUCAACUAUGACACGCAAAACGCGUGCUCCGUUGAAUGGAGUUUAUCAUG [G25U], for which the “polymerase ribozyme fitness (log ratio)” value is -1.73.

For GGAUCUUCUCGAUCUAACAAAAAAUACAAGUCUGCCACAAAGCUUGAGAGAAUCUUCGGAUGCAGAGGCGGCAGCCUUCGGUGGCGCGAUAGCGCCAACGUUCUUAACUAUGACACGCAAAACGCGUGCUCCCUUGAAUGGAGUUUAUCAUG [G25U A30G C51A C105U G133C], the “polymerase ribozyme fitness (log ratio)” value is ≤ -4.2.

With GGAUCUUCUCGAUCUAACAAAAAAUACAAAUCUGCCACAAAGCUUGAGAGCAUCUUCGGAUGCAGAGGCGGCAGCCUUCGGUGGCGCGAUAGCGCCAACGUUGUCAACUAUGACACGCAAAACGCGUGCUCCGUUGAAUGGAGUUUAUCAUG [G25U C103G], the “polymerase ribozyme fitness (log ratio)” value is -3.2.

For the variant GGAUCUUCUCGAUCUAACAAAAAAUACAAAUCUGCCACAAAGCUUGAGGGCUUCUUCGGAUGCAGAGGCGGCAGCCUUCGGUGGCGCGAGAGCGCCAACGUUCUCAACUAUGACACGCAAAACGGGUGCUCCGUUGAAUGGUCUUUAUCAUG [G25U A49G A52U U90G C125G A142U G143C], the “polymerase ribozyme fitness (log ratio)” value was ≤ -4.2.

In the case of GGAUCUUCUCGAUCUAACAAAAAAUACAAAUCUGCCACAAAGCUUGAGAGCAUCUUCGGAUGCAGAGGCGGCAGCCUUCGGUGGCGCGAUAGAGCCAACGUUCUCAACUAUGACACGCAAAACGCGUGCUCCGUUGAAUGGAGUUUGUCAUG [G25U C93A A147G], the “polymerase ribozyme fitness (log ratio)” value is ≤ -4.2.

As to GGAUCUUCUCGAUCUAACAAAAAAUACAAAUCUGCCACAAAGCUUGAGCGCAUCUUCGGAUGCAGAGGCGGCAGCCUUCGGUGGCGCUAUAGCGCCGACGUUCUCAACUAUGACACGCAAAACGCGUGCUCCGUUGAAUGGAGUUUAUCAUG [G25U A49C G88U A97G], the “polymerase ribozyme fitness (log ratio)” value is ≤ -4.2.

For the variant GGAUCUUCUCGAUCUAACAAAAAAUACAAAUCUGCCACAAAGCUUGAGAGCCUCUUCGGAUGCAGAGGCGGCAGCCUUCGGUGGCGAGAGAGCGCCAACGUUCUCAACUAUGACACGCAAAACGCGUGCUCCGUUGAAUGGGGUUUAUCAUG [G25U A52C C87A U90G A142G], the “polymerase ribozyme fitness (log ratio)” value was ≤ -4.2.

For the variant GGAUCUUCUCGAUCUAACAAAAAAUACAAAUCUGCCACAAAGCUUGAGAGCAUCUUCGGAUGGAGAGGCGGCAGCCUUCGGUGGCGCCAUAGCGCCAACGUUCUCAAUUAUGACACGCAAAACGCGUGCUCCGUUGAAUGGAGUUUAUCAUG [G25U C63G G88C C108U], the “polymerase ribozyme fitness (log ratio)” value is -3.94.

In the case of GGAUCUUCUCGAUCUAACAAAAAACACAAAUCUGCCACAAAGCUUGAGAGCAUCUUCAGAUGCAGAGGCGGAAGCCUUCAGUGGCGAGAUAGCGCCAACGUUCUCAACUAUGACACGGAAAACGCGUGCUCCGUUGAAUGGAGUUUAUCAUG [G25C G58A C72A G80A C87A C118G], the “polymerase ribozyme fitness (log ratio)” value is ≤ -4.2.

In the case of GGAUCUUCUCGAUCUAACAAAAAAUACAAAUCUGCCACAAAGCUUGAGAGCGUCUACGGGUGCAGAGGCGGCAGCCUUCGGUGGCGCGAUAGCGCCAACGUUCUCAACUAUGACACGCAAAACGCGUGCUCCCUUGAAUGGAGUUUAUCAUG [G25U A52G U56A A60G G133C], the “polymerase ribozyme fitness (log ratio)” value is -4.06.

Regarding GGAUCUUCUCGAUCUAACAAAAAAUACAAAUCUGCCACAAAGAUUGAGAGCAUCUUCCGCUGCAGAGGCGGCAGCCUUCGGUGGCGCGAUGGCGCCAACGUUCUCAACUAUGACACGCAAAACGCGUGCUCCGUUGAAUGGAGUUUAUCAUG [G25U C43A G58C A60C A91G], the “polymerase ribozyme fitness (log ratio)” value is ≤ -4.2.

With GGAUCUUCUCGAUCUAACAAAAAACAUAAAUCUGCCACAAAGCUCGAGAGCAUCUUCGGAUGCAGAGGCGUCAGCCUUCGGAAGCGCGAUAUCGCCAACGUUCUCAACUAUGACACGCAAAACGCGUGCUCCGUUGAAUGGAGUUUAUCAUG [G25C C27U U45C G71U U82A G83A G92U], the “polymerase ribozyme fitness (log ratio)” value was ≤ -4.2.

Turning to GGAUCUUCUCGAUCUAACAAAAAACACAAAUCUGCCACAAAGCUUGAAAGCAUCUUCGGAUGCAGAGGCGGCAGCCUUCGGUGGCGUGAUAGCGCCAACGUUCUCAACUAUGACACGCAAAACGCGUGCUCCGUUGAAUGGGGUUUAUCAUG [G25C G48A C87U A142G], the “polymerase ribozyme fitness (log ratio)” value was -4.11.

Regarding GGAUCUUCUCGAUCUAACAAAAAACACAAAUCUGCCACAUAGCUUGAGAGCAUCUUCGGAUGCAGAGGCGGCAGCCUUCGGUGGCGUGAUAGAGUCAACGUUCUCAACUAUGACACGCAAAACGCGUGCUCCGUUGAAUGGAGUUUAUCAUG [G25C A40U C87U C93A C95U], the “polymerase ribozyme fitness (log ratio)” value is ≤ -4.2.

With GGAUCUUCUCGAUCUAACAAAAAACACAAAUCUGCCACAAAGCUUGAGAGCAUUUUCGGAUGCAGAGGCGGCGGCCUUCGGUGAAGCGCUAGCGCCAACGUUCUCAACUAUGACACGCAAAACGCGUGCUCCGUUGAAUGGAGUUUAUCAUG [G25C C54U A73G G84A C85A A89C], the “polymerase ribozyme fitness (log ratio)” value was ≤ -4.2.

On to GGAUCUUCUCGAUCUAACAAAAAACACGAAUCUGCCACAAAGCUUGAGAGCAUCUUCGGAUGCAGAGGCGGCAGCCUUCCGUAGCGCGAUAGCGCCAACGUUCUCAACUAUGACACGCAAAACGCGUGCUCCGUUGAAUGGAGUUUAUCAUG [G25C A28G G80C G83A], for which the “polymerase ribozyme fitness (log ratio)” value was -4.19.

GGAUCUUCUCGAUCUAACAAAAAAUACAAAUCUUCCACAAAGCUUGCGAGCAUCUUCGGAUGCAGAGGCGGCAGCCUUCGGUGGCGCGGUAGCGCCAACGUUCUCAACUAUGACACGCAAAACGCGUGCUCCGUUGAAUGGAGUUUAUCAUG [G25U G34U A47C A89G]: the “polymerase ribozyme fitness (log ratio)” value is ≤ -4.2.

With GGAUCUUCUCGAUCUAACAAAAAAUACAAAUCUGCCACAAGGCUUGAGAGCAUCUUCGGAUGCAGAGGCGGCAGCCUUCGGUGGCGCGAUAGGGCCAACGUUCUCAACUAUGUCACGCAAAACGCGUGCUCCGUUGAAUGGAGUUUAUCUUG [G25U A41G C93G A113U A150U], the “polymerase ribozyme fitness (log ratio)” value is ≤ -4.2.
